Experimental data from patent publication US7842460.

T1: (yeast SUMO) Smt3-PLA2mX fusion, Q9QXX3
T1 chain: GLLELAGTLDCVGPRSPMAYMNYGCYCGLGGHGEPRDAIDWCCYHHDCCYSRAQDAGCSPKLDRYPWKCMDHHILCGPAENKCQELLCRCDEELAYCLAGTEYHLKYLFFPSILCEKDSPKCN

T2: SUMO-GPATase fusion protein from pET24-6H-SUMO-GPATase, P0AG16
T2 chain: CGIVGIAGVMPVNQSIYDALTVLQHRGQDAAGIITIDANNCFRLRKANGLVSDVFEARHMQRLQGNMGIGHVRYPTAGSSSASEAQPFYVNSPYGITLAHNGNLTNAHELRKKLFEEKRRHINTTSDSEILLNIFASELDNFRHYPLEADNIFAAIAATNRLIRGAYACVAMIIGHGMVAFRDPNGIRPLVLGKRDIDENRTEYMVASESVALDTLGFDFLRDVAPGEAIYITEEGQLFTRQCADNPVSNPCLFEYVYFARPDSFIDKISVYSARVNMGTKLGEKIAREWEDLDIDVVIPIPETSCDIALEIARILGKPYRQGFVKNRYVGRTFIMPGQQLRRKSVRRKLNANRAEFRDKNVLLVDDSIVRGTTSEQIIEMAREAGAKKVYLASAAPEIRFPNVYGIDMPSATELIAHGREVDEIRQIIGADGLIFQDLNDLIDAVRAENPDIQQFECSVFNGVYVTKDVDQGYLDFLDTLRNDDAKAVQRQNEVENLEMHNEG

T3: Ubiquitin-PLA2mX fusion, Q9QXX3
T3 chain: T1 chain

T4: Smt3-3Dpol (Mahoney strain) fusion from pET24-6H-SUMO-3Dpol, P03300
T4 chain: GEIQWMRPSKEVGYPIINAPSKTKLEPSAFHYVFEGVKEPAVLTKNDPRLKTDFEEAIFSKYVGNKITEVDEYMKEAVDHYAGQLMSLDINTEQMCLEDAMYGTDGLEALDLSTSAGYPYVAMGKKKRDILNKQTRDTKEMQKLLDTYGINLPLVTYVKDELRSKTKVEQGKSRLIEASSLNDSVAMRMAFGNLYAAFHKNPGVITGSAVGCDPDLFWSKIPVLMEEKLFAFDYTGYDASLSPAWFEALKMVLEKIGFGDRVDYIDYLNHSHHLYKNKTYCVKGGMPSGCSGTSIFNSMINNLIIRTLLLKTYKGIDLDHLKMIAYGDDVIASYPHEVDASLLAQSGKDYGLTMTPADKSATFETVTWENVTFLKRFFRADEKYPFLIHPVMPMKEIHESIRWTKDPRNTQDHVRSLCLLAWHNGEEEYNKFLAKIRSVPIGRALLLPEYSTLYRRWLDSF

B1: C-terminal His-tagged SUMO protease 1, ULP1 (403-621)p (protein)
chain: LVPELNEKDDDQVQKALASRENTQLMNRDNIEITVRDFKTLAPRRWLNDTIIEFFMKYIEKSTPNTVAFNSFFYTNLSERGYQGVRRWMKRKKTQIDKLDKIFTPINLNQSHWALGIIDLKKKTIGYVDSLSNGPNAMSFAILTDLQKYVMEESKHTIGEDFDLIHLDCPQQPNGYDCGIYVCMNTLYGSADAPLDFDYKDAIRMRRFIAHLILTDALK
B2: SENP2 isopeptidase (protein)
chain: DLLELTEDMEKEISNALGHGPQDEILSSAFKLRITRGDIQTLKNYHWLNDEVINFYMNLLVERNKKQGYPALHVFSTFFYPKLKSGGYQAVKRWTKGVNLFEQEIILVPIHRKVHWSLVVIDLRKKCLKYLDSMGQKGHRICEILLQYLQDESKTKRNSDLNLLEWTHHSMKPHEIPQQLNGSDCGMFTCKYADYISRDKPITFTQHQMPLFRKKMVWEILHQQLL
B3: Den1, a Nedd8-specific isopeptidase (protein)
chain: MDPVVLSYMDSLLRQSDVSLLDPPSWLNDHIIGFAFEYFANSQFHDCSDHVSFISPEVTQFIKCTSNPAEIAMFLEPLDLPNKRVVFLAINDNSNQAAGGTHWSLLVYLQDKNSFFHYDSHSRSNSVHAKQVAEKLEAFLGRKGDKLAFVEEKAPAQQNSYDCGMYVICNTEALCQNFFRQQTESLLQLLTPAYITKKRGEWKDLITTLAKK

Tests used:
[1] = target: T1, (yeast SUMO) Smt3-PLA2mX fusion, Q9QXX3
[2] = target: T2, SUMO-GPATase fusion protein from …
[3] = target: Smt3-tryptase (6xHis-SUMO-human tryptase fusion, secreted from Sf9 insect cells) [SUMO: Q12306]
[4] = target: T3, Ubiquitin-PLA2mX fusion, Q9QXX3
[5] = target: T4, Smt3-3Dpol (Mahoney strain) fusion from …
[6] = target: human SUMO3-PLA2mX fusion, P55854
[7] = target: human Nedd8-PLA2mX fusion, Q15843
Sequence of human Nedd8-PLA2mX fusion, Q15843 (Q15843 whole entry, looked up, the tested form may be a part): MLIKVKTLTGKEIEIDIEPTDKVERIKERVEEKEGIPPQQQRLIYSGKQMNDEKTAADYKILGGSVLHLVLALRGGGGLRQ

Sequence of Smt3-tryptase (6xHis-SUMO-human tryptase fusion, secreted from Sf9 insect cells) [SUMO: Q12306] (Q12306 whole entry, looked up, the tested form may be a part): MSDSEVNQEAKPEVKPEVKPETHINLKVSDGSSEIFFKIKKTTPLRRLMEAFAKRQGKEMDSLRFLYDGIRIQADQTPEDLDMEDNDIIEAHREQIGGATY

Row | Protein | Ratio of PLA2 activity, fusion with isopeptidase over fusion without [1] | cleavage of the fusion by SDS-PAGE (10 ug fusion, 1 ug Ulp-1, one hour) [1] | GPATase activity by coupled glutamate dehydrogenase assay, absorbance at 363 nm [2] | glutaminase activity of GPATase (coupled GDH assay) [2] | tryptase activity, peptidyl chromogenic substrate, absorption at 410 nm [3] | cleavage of the fusion by SDS-PAGE [4] | cleavage of the fusion by SDS-PAGE and Coomassie Blue staining [5] | Ratio of PLA2 activity, fusion with isopeptidase over fusion without [6] | cleavage of the fusion by SDS-PAGE (10 ug fusion, 1 ug SENP2) [6] | Ratio of PLA2 activity, fusion with isopeptidase over fusion without [7] | cleavage of the fusion by SDS-PAGE [7]
1 | B1 | 7.04 | complete cleavage of the reporter fusion protein to yield the separate constituents, Smt3 (at 21 kDa) and 14 kDa PLA2mX | there was an increase is absorbance at the OD 363 reading ... In the absence of Ulp1, this increase of absorbance did not occur | at least a 10-fold increase in the glutaminase activity of GPATase | augmented tryptase activity was measured | The yeast ULP1 enzyme failed to cleave the Ubiquitin-PLA2mX fusion protein | resulted in 100% of cleavage of 3Dpol |  |  |  | 
2 | B2 |  |  |  |  |  | The SENP2 enzyme failed to cleave the Ubiqutin-PLA2mX fusion protein |  | 9.95 | the appropriately sized hSUMO3 (21 kDa) and PLA2mX (14 kDa) bands were observed, indicating complete cleavage of the fusion protein |  | 
3 | B3 |  |  |  |  |  |  |  |  |  | 3.38 | the Nedd8-fusion protein became cleaved and 14 kDa PLA2mX and 9 kDa Nedd8 bands appear
